Here are results for 20 molecules from patent US20230095569A1 (ANTENGENE BIOLOGICS, published 2023).

Changes are numbered by the printed parent chain.

In test [1] the target is T1, human Claudin18.1 (CLDN18.1) (human, UniProt P56856 1-261).
T1 construct: whole, on cells; also called human Claudine18.1
The test is described as follows: FACS on CHOK1-18.1 cells.
Experimental: (§1) The specificity and cross-reactivity of these subclones were confirmed with FACs analysis. […] Fluorescent dye-conjugated secondary antibody was used to detect the binding of the primary antibody with the cells. Median fluorescence intensity (MFI) was measured by FACs analysis.

Test [2] deals with T1, human Claudin18.1 (CLDN18.1). Put plainly: FACS on CHOK1-18.1 cells. This is another data set of the same source.
Experimental: as §1
The target of test [3] is T2, human Claudin18.2 (CLDN18.2) (human, UniProt P56856 1-261).
T2 construct: the cell line is named under assay; also called human Claudine18.2; hClaudin18.2
Put plainly: FACS on CHOK1-18.2 cells.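 Also: antibody binding to the cells detected with a fluorescently labelled secondary antibody and read out as median fluorescence intensity by flow cytometry.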
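For result in this document: antibody binding to cells detected with a fluorescently labelled secondary antibody, read out as median fluorescence intensity (MFI) by flow cytometry.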
Experimental: as §1

B1: Ab03 (antibody, V domains shown)
VH: EVQLQQSGPELVKPGASVKIACKASGYTFTDYNMDWVKQSHGKSLEWIGNINSYYGGTIYNQKFKGKATLTVDKSSSTAYMVLRSLTSEDNAVYYCARPHLGNALDYWGQGTSITVSS
VL: DIVVTQSPSSLTVTPGEKVTMSCKSSQSLFNSGNQKNYLSWYQQNPGQPPKLLIYWASTRQSGVPDRFTGSGSGTDFTLTISSVQAEDLAGYYCQNDYIFPLTFGAGTKLELK
notes: mouse monoclonal (hybridoma)
For the molecule B1, in test [1], the binding result was “no binding”. The “FACS MFI” value in test [2] came out at 95.6; in test [3], 1960.

B2: Ab31 (antibody, V domains shown)
VH: QIQLAQSGPELKKPGETVKISCKASGYSFTNYGMNWVKQAPGKGLKWMGWINTYSGETKYADDFKGRFDFSLETSARTAYLQIKNLKIEDTATYFCARRDAMDYWGQGTSVTVSS
VL: DIVMTQAAPSVPVTPGESVSISCRSSKSLLNSNGNTYLYWFLQRPGQSPQLLIYRMSNLASGVPDRFSGSGSGTAFTLRISRVEAEDVGVYYCMQHLEFPFTFGSGTKLEIK
notes: mouse monoclonal (hybridoma)
For B2, the binding result in test [1] was “no binding”. The “FACS MFI” value in test [2] is 97; in test [3], 5520.

B3: Ab21 (antibody, V domains shown)
VH: EVMLVESGGGLVKPGGSLKLSCAASGFTFSSYTMSWVRQTPEKRLEWVATIIGGYGNTYYVDSVKGRFTISRDSAKNTLYLQMISLRSEDTALYYCTRLGQTQRNAMDYWGQGTSVTVSS
VL: DILMTQSPSSLSVSAGEKVTMSCKSSQSLLNSGNQKNYLAWYQQKPGQPPKLLIYGASTRESGVPDRFTGSGSGTDFTLTISSVQAEDLAVYYCQNDYYYPFTFGAGTKLEL
notes: mouse monoclonal (hybridoma)
With B3, the binding result in test [1] is reported as “no binding”. Also, the “FACS MFI” value is 79.4 in test [2] and 10100 in test [3].

B4: Ab26 (antibody, V domains shown)
VH: EVMLVESGGGLVKPGGSLKLSCTASGFTFRSYTMSWVRQTPEKRLEWVATITGGGGNTYFLDSVKGRFTFSRDNAKNALYLQMNSLRSEDTALYYCARLGQTQRNAMDYWGQGTSVTVSS
VL: B3 VL with L3V, K36M, V91I, Y98H, Y99T, F102L
notes: mouse monoclonal (hybridoma)
Take B4: the binding result in test [1] is given as “no binding”. Also, the “FACS MFI” value in test [2] was found to be 80.8; in test [3], 9730.

B5: Ab20 (antibody, V domains shown)
VH: B3 VH with A23V, V61S, F68I
VL: B3 VL with S22N
notes: mouse monoclonal (hybridoma)
Regarding B5, in test [1], the binding result is recorded as “no binding”. Further, the figures for the “FACS MFI” value in test [2] and in test [3] were 82.3 and 7580, respectively.

B6: Ab23 (antibody, V domains shown)
VH: B3 VH with A23V, I51L, I52S, G53V, G54V, Y55G, S74K, I84S, T97A
VL: B3 VL with L3V, Y99S, F102L
notes: mouse monoclonal (hybridoma)
As for B6, the binding result in test [1] was “no binding”. For the same molecule, the “FACS MFI” value in test [2] was 82.3; in test [3], 8600.

B7: Ab22 (antibody, V domains shown)
VH: B3 VH with V61A
VL: B3 VL with R67T
notes: mouse monoclonal (hybridoma)
With B7, in test [1], the binding result is given as “no binding”. Besides, the figures for the “FACS MFI” value in test [2] and in test [3] were 82.3 and 9020, respectively.

B8: Ab01 (antibody, V domains shown)
VH: DVQLQESGPGLVKPSQSLSLTCSVTGYSITSGYYWNWIRQFPGNKLEWMGYITYDGSNNYNPSLKNRISITRDTSKNQFFLKLNSVTTEDAATYFCARDPNYYGTTLPAWFVYWGQGTLVTVSA
VL: DIVVTQSHKFMSTSVGDRVSITCKASQDVGTAVAWYQQKPGQSPKLLIYWASTRHTGVPDRFTGSGSGTDFTLTISNVQSEDLTDYFCQQYSSYVTFGAGTKLELK
notes: mouse monoclonal (hybridoma)
Take B8: the “FACS MFI” value in test [2] came out at 7250; in test [3], 12300.

B9: Ab04 (antibody, V domains shown)
VH: EVQLQQSGPELVKPGASVKMSCMASGYTFTDYNIHWVKRSHGSRLEWIGYISPISGGAGYNQKFMDKATLTVDKSSNTAYMELRSLTSEDSAVYYCTRGDYWGQGTTLTVSS
VL: DIVMTQSPSSLAVTVGEKVTMSCKSSQSLLNSGNQKNYLTWYQQKPGQPPKLLIYWASTRKSGVPDRFTGSGSGTDFTLTISSVQAEDLGIYYCLNDYGFPLTFGAGSKLELK
notes: mouse monoclonal (hybridoma)
For B9, the “FACS MFI” value turned out to be 6920 in test [2] and 17600 in test [3].

B10: Ab27 (antibody, V domains shown)
VH: QVQLQQSGAELVRPGSSVKISCKASGYAFSNYWMNWVKQRPGQGLEWIGQIYPGNGDTNYNGKFKGKATLTADKSSTTAYIQLSSLTSEDSAVYFCTRIYYGNSFAYWGQGTLVTVS
VL: DIVMTQSPSSLTVTAGERVTMSCKSSQSLLNSGNQKNYLTWYQQKPGQPPKLLIYWASTRESGVPDRFTGSGSGTDFTLTISRVQAQDLAVYYCQNDYYYPLTFGAGTKLELK
notes: mouse monoclonal (hybridoma)
Turning to B10, the binding result in test [1] is listed as “no binding”. Besides, the “FACS MFI” value in test [2] was 97; in test [3], 7150.

B11: Ab32 (antibody, V domains shown)
VH: QVQLKESGPGLVAPSQSLSITCTVSGFSLTSHGVHWVRQPPGKGLEWLGVIWAGGSINFNSALMSRLSISKDNSKNQVFLKMNSLQSDDTAMYYCARDYYYGIGLDYWGQGTTLTVS
VL: B10 VL with T12S, T14S, R18K, T40A, W56G, R83S, Q87E, L102F, A106S, L112I
notes: mouse monoclonal (hybridoma)
For B11, the binding result in test [1] is recorded as “no binding”. The “FACS MFI” value in test [2] came to 172; in test [3], 8730.

B12: Ab33 (antibody, V domains shown)
VH: DVNLVESGGGLVKPGGSLKLSCAASGFTFSSYTMSWVRQTPEKRLEWVATITYGRIYTYYLDSVKGRFTISRDNAKNTLYLQMSSLRSEDTAMYYCTRMITGNAMDSWGLGTSVTVSS
VL: B10 VL with R18K, R83G, A86G, Q87E, Y99S, A106G
notes: mouse monoclonal (hybridoma)
Regarding B12, in test [1], the binding result is “no binding”. The “FACS MFI” value in test [2] was found to be 97; in test [3], 8200.

B13: Ab28 (antibody, V domains shown)
VH: B11 VH
VL: B10 VL with T12S, T14S, R18K, T40A, W56G, R83S, Q87E, L102F, A106S, L112I
notes: mouse monoclonal (hybridoma)
As for B13, the binding result in test [1] is on record as “no binding”. Also, the “FACS MFI” value was determined as 206 in test [2] and 8880 in test [3].

B14: Ab38 (antibody, V domains shown)
VH: QIQLVQSGPELKKPGETVKISCKASGYTFTNYGMSWVKQAPGKGLKWMGWINTYSGVPTYADDFKGRFVFSLEASASTAYLQINNLKNEDAATYFCSRWSGPDPLEDHWGQGTTLTVSS
VL: QIVLTQSPAIMSASPGEKVTMTCTASLSLNYIHWYRQRSGTSPKRWIYDTSKLASGVPSRFSGSGSGTSYSLTISSMEAEDAATYYCQQWSSNPWTFGGGTKLEIK
notes: mouse monoclonal (hybridoma)
As for B14, the “FACS MFI” value in test [3] was found to be 15700.

B15: Ab34 (antibody, V domains shown)
VH: EVLLQQSGPELVKPGASVKIPCKASGYTFSDYNMDWVKQSHGKSLEWIGHINPNNDNTIYNQKFKGKATLTVDKSSNTAYMDLRSLSSEDTAVYYCARGAYYGNSMDYWGQGTSVTVSS
VL: DIVMTQSPSSLTVTAGERVTMSCKSSQSLLNGGNQRNYLTWYQQKPGQSPKLLIYWASTWESGVPDRFTGSGSGTDFTLTISSVQAEDLAVYYCQNAYFYPYTFGGGTKLEIK
notes: mouse monoclonal (hybridoma)
Take B15: the binding result in test [1] is on record as “no binding”. Also, the “FACS MFI” value was found to be 91.1 in test [2] and 9070 in test [3].

B16: Ab29 (antibody, V domains shown)
VH: EVLLQQSGPELVKPGASVKIPCKASGYTLTDHSMDWVKQSHGKSLEWIGNILPNNGGNIYNQKFRGKATLTVDKSSSTAYMELRSLTSEDTAVYNCARGHYGNSFAYWGQGTLVIVS
VL: DIVMTQSPSSLTVRAGEKVTIYCKSSQSLFNSGNQKNYLTWYQQKPGQPPKLLIYWASTRESGVPHRFTGSGSGTDFTLTISSMQADDLATYYCQNGYFFPYTFGGGTKLEIK
notes: mouse monoclonal (hybridoma)
As for B16, in test [1], the binding result is reported as “no binding”. Also, the “FACS MFI” value in test [2] worked out at 97; in test [3], 19100.

B17: Ab36 (antibody, V domains shown)
VH: EVKLEESGGGLVQPGGSMKLSCVASGFTFSNYWMNWVRQSPEKGLEWVAQIRLKSDNYATHYAESVKGMFTISRDDSKSSVYLQMNNLRAEDTGIYYCTAGGDYWGQGTTLTVSS
VL: DIVMTQSQKFMSTTVGDRVSITCKASQNVGTAVAWYHQKPGQSPKLLIYSASNRYTGVPDRFIGSGSGTDFTLTISNVQSEDLGNYFCQQYINYLLTFGSGTKLEIK
notes: mouse monoclonal (hybridoma)
For B17, in test [3], the “FACS MFI” value stood at 18000.

B18: Ab37 (antibody, V domains shown)
VH: B17 VH with S40Y, K43Q, K54N, M69R, K78R, S80T, A100G, D103E
VL: DIVMTQSQKFMSTTIGDRVSITCKASQNVDTAVAWYQQKPGQSPKLLIYSASTRYTGVPDRFTGSGSGTDFTLTISNMQSEDLADYFCQQYISYQLTFGAGTKLELK
notes: mouse monoclonal (hybridoma)
Turning to B18, the “FACS MFI” value turned out to be 4590 in test [2] and 15200 in test [3].

B19: Ab30 (antibody, V domains shown)
VH: QVQLKESGPGLVAPSQSLSITCTVSGFSLTKFGVNWVRQPPGKGLEWLGAIWGDGSTNYHSALISRLSINKDNSKSQVFLKLSSLQNVDTATYYCAKSGYGNAMDYWGHGTSVTVSS
VL: DIVMTQSPSSLTVTTGEKVTLNCKSSQSLLNSGNLKNYLTWYQQRPGQPPKLLIYWASTRESGVPYRFTGSGSGTDFTLTISNVQAEDLAIYYCQNDYFFPFTFGSGTKLEIK
notes: mouse monoclonal (hybridoma)
Turning to B19, the binding result in test [1] is recorded as “no binding”. For the same molecule, the figures for the “FACS MFI” value in test [2] and in test [3] were 98.5 and 7560, respectively.

B20: Ab35 (antibody, V domains shown)
VH: DVFLQESGPGLVKPSQSLSLTCTVTGYSITSDYAWNWIRQFPGNKLEWVTYIGYSGTTSYNPSLKSRISITRDTSKNQFFLQLNSVSTEDTATYYCVRRGSYYGSYWFFDVWGAGTTVTVSS
VL: QVVLSQSPAILSASPGEKVTMTCRASSSVSYMHWYQQKPGSSPKPWIYATSNLASGVPPHFSGSGSGTSYSLTISRVEAEDAATYYCQQWTSNPPTFGGGTKLEIK
notes: mouse monoclonal (hybridoma)
Consider B20, for which the binding result in test [1] is reported as “no binding”. In addition, the “FACS MFI” value was determined as 92.6 in test [2] and 11300 in test [3].
